Consider two molecules from US5980890A, “Purification and characterization of alkaline phosphates from Thermotoga neapolitana” (Michigan State University, priority 1997, dated 1999).

Where a name gives a salt, the structure may show the parent alone.

Data set [1] concerns the target T1, Thermotoga neapolitana (DSM 5068) alkaline phosphatase, purified native enzyme (Thermotoga neapolitana, UniProt B9K6X5).
T1 sequence (B9K6X5 23-436): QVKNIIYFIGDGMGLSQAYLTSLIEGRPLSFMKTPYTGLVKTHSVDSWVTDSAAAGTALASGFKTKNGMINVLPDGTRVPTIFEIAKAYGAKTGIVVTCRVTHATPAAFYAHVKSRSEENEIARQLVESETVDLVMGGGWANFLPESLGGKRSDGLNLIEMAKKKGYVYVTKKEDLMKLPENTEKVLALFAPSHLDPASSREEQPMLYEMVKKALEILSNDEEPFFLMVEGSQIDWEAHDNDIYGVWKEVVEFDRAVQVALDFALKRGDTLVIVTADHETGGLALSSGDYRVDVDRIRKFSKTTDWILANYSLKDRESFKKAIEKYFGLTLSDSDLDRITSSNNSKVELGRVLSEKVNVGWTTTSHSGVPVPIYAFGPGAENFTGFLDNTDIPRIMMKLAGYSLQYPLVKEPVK
The data set can be described thus: biochemical. The note with it: 1 h, read-out: original activity detected after exhaustive treatment with EDTA.
Description: The initial linear change in the absorbance at 410 nm was detected by recording spectrophotometer (Cary 219, U.S.A.), thermostated at 60° C. One enzyme activity unit represents the hydrolysis of 1 μl mole of substrate per min under these standard assay condition.
The purified alkaline phosphatase in Buffer A was incubated at room temperature for 1 h in the presence of EDTA at 0.0-5.0 mM concentration respectively. The residual enzyme activity was assayed under standard conditions.
For metal ion treatment, 10 mM EDTA was added into a tube containing the purified alkaline phosphatase in Buffer A. After 1 h, the mixture was dialyzed against Buffer A containing 2 mM EDTA and then three times against Buffer A without EDTA. Subsequently, 2 mM of different metal ions were added to the deionized enzyme solutions, and the mixtures were incubated for 1 h at room temperature. For a comparison, 2 mM of various metal ions were added directly to purified protein and incubated under the same conditions. All the metal ions used were in chloride form. The enzyme activity was assayed under standard conditions.

Substrate in data set [2]: O=[N+]([O-])c1ccc(OP(=O)(O)O)cc1
Description: purified protein, by the assay type. The following applies: other: p-nitrophenyl phosphate as substrate, optimal temperature and pH conditions (85° C., pH 9.9).

On to `O=C(O)CN(CCN(CC(=O)O)CC(=O)O)CC(=O)O` [EDTA, Ethylenediamine tetraacetic acid disodium salt], for which, in data set [1], the activity at 10000 µM is about 5%.

B1: Thermotoga neapolitana (DSM 5068) alkaline phosphatase, purified native enzyme (Thermotoga neapolitana DSM 4359) (protein)
chain: QVKNIIYFIGDGMGLSQAYLTSLIEGRPLSFMKTPYTGLVKTHSVDSWVTDSAAAGTALASGFKTKNGMINVLPDGTRVPTIFEIAKAYGAKTGIVVTCRVTHATPAAFYAHVKSRSEENEIARQLVESETVDLVMGGGWANFLPESLGGKRSDGLNLIEMAKKKGYVYVTKKEDLMKLPENTEKVLALFAPSHLDPASSREEQPMLYEMVKKALEILSNDEEPFFLMVEGSQIDWEAHDNDIYGVWKEVVEFDRAVQVALDFALKRGDTLVIVTADHETGGLALSSGDYRVDVDRIRKFSKTTDWILANYSLKDRESFKKAIEKYFGLTLSDSDLDRITSSNNSKVELGRVLSEKVNVGWTTTSHSGVPVPIYAFGPGAENFTGFLDNTDIPRIMMKLAGYSLQYPLVKEPVK
A word on the Km: it is the concentration of substrate that gives half-maximal velocity. As for B1, in data set [2], the Km amounted to 183 µM and the Vmax was determined as 1352 U/mg.
